Reference: patent US20230416362A1 (INDUSTRIAL TECHNOLOGY RESEARCH INSTITUTE, published 2023)

T1: mTIGIT (ELISA of Table 7) (mouse, UniProt P86176 29-145, limits assumed)
T1 construct: also called mouse TIGIT
T1 sequence (looked up): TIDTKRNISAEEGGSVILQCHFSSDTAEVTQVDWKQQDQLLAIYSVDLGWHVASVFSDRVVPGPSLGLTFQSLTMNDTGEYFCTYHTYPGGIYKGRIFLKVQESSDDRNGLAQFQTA

T2: hTIGIT (ELISA of Table 7) (human, UniProt Q495A1 22-141, limits assumed)
T2 construct: whole entry named; also called human TIGIT
T2 chain: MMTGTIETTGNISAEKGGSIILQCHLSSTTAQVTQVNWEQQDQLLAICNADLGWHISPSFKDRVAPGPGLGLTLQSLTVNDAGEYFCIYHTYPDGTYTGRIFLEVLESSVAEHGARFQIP


Assays:
[1] = biological target: T1, mTIGIT (ELISA of Table 7); experiment: mTIGIT/mCD155 competition ELISA; competitor mCD155
[2] = biological target: T1, mTIGIT (ELISA of Table 7); experiment: ELISA binding
[3] = biological target: T2, hTIGIT (ELISA of Table 7); experiment: ELISA binding

Row | IC50 [1] [nM] | EC50 [2] [nM] | EC50 [3] [nM] | Binder
1 | 61.7 | 3.6 | 9.4 | 1G3 mIgG2a-DLE (antibody, V domains shown, Mouse IgG2a isotype with DLE (S239D/A330L/I332E) mutations at the Fc region) VH: DIQLVQSGGGLVKPGGSLRLSCAASGYTFTNYWIGWVRQTPGKGLEWVGDIYPGSSFTNSNEKFKGRFTISADKSKNTAYLQMNSLRAEDTAVYYCARDMVGYWYFDVWGQGTLVTVSS VL: DIVLTQSPATLSASLGERATLSCSASSSVSYIHWYQQKPGQAPKLLIYTTSNLASGVPSRFSGSGSGTDFTLTISSLEAEDFATYYCHQWSRYPTFGGGTKLEIK
2 | 12.4 | 0.7 | 0.9 | 3H2 mIgG2a-DLE (antibody, V domains shown, Mouse IgG2a isotype with DLE (S239D/A330L/I332E) mutations at the Fc region) VH: DIQLVQSGGGLVKPGGSLRLSCAASGYTFTNYWIGWVRQTPGKGLEWVGDIYPGSSFTNSNEKFKGRFTISADKSKNTAYLQMNSLRAEDTAVYYCARIRLGYWYFDVWGQGTLVTVSS VL: DIVLTQSPATLSASLGERATLSCSASSSVSYIHWYQQKPGQAPKLLIYTTSNLASGVPSRFSGSGSGTDFTLTISSLEAEDFATYYCHQWSRYPTFGGGTKLEIK
3 |  | 217 | 0.3 | hz7D4 mIgG2a (antibody, V domains shown) VH: EVQLVQSGGGLVKPGGSLRLSCAASGYTFTNYWIGWVRQTPGKGLEWVGDIYPGSSFTNSNEKFKGRFTISADKSKNTAYLQMNSLRAEDTAVYYCARLGRGYWYFDVWGQGTLVTVSS VL: DIVLTQSPATLSASLGERATLSCSASSSVSYIHWYQQKPGQAPKLLIYTTSNLASGVPSRFSGSGSGTDFTLTISSLEAEDFATYYCHQWSRYPTFGGGTKLEIK
4 | 33.8 | 1.1 | 464 | 2F1 mIgG2a-DLE (antibody, V domains shown, Mouse IgG2a isotype with DLE (S239D/A330L/I332E) mutations at the Fc region) VH: DIQLVQSGGGLVKPGGSLRLSCAASGYTFTNYWIGWVRQTPGKGLEWVGDIYPGSSFTNSNEKFKGRFTISADKSKNTAYLQMNSLRAEDTAVYYCARVIVGYWYFDVWGQGTLVTVSS VL: DIVLTQSPATLSASLGERATLSCSASSSVSYIHWYQQKPGQAPKLLIYTTSNLASGVPSRFSGSGSGTDFTLTISSLEAEDFATYYCHQWSRYPTFGGGTKLEIK
